Where a chain is given by its changes, count along the chain named. Values belong to the binder of their own block, whether it stands above or below them.
Experiments:
[1] = target: T1, Human glycophorin A on human erythrocytes (human, UniProt P02724 20-150); assay: flow cytometry on human erythrocytes, Fab in culture supernatant [C]
T1 construct: whole, on cells; Target of the flow cytometry assays on human erythrocytes; also called human GPA; hGPA
T1 sequence (looked up): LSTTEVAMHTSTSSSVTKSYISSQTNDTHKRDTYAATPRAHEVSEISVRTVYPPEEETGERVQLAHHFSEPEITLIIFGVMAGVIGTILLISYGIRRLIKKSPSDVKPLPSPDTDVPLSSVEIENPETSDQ
In short: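 Fabs chosen from one CDR library by next-generation-sequencing enrichment were expressed as soluble Fabs in HEK cells in high-throughput format. Fab concentration in the culture supernatant was quantified by Octet biolayer interferometry. Supernatant Fabs were tested for binding to human erythrocytes by flow cytometry, read as median fluorescence intensity curves. These curves were compared with the parental Fab.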

[2] = target: T2, Human glycophorin A extract (hGPA extract) (human, UniProt P02724 20-150); assay: Octet BLI, hGPA extract, apparent; biphasic off-rate to fit data
T2 construct: also called human GPA extracted from red blood cells (extract)
T2 sequence (looked up): T1 sequence (looked up)

[3] = target: T2, Human glycophorin A extract (hGPA …); assay: Biacore SPR, hGPA extract, apparent; biphasic off-rate to fit data
[4] = target: T1, Human glycophorin A on human …; assay: flow cytometry (FACS) on human erythrocytes, soluble Fab
[5] = target: T2, Human glycophorin A extract (hGPA …); assay: Biacore SPR, hGPA extract, apparent KD; biphasic off-rate to fit data
[6] = target: T2, Human glycophorin A extract (hGPA …); assay: Octet BLI, hGPA extract, apparent KD; biphasic off-rate to fit data

B2: Humanized & affinity matured 10F7-M10 Fab clone L1+2-7 (Fab)
heavy: EVQLLESGGGLVQPGKSLRLSCKASGYTFNSYFMHWVRQAPGKGLEWVGMIRPNGGTTDYNEKFKNRFTLSVDKSKNTAYLQMNSLRAEDTAVYYCARWEGSYYALDYWGQGTASTKGPSVFPLAPSSKSTSGGTAALGCLVKDYFPEPVTVSWNSGALTSGVHTFPAVLQSSGLYSLSSVVTVPSSSLGTQTYICNVNHKPSNTKVDKKVEPKSC
light: EITLTQSPATLSLSPGERATLSCRASSNVHHMYWYQQKPGQAPRLWIHHTSLLASGIPDRFSGSGSGTDYTLTISRLEPEDFAVYYCQQFTSSPYTFGQGTKVEVKRTVAAPSVFIFPPSDEQLKSGTASVVCLLNNFYPREAKVQWKVDNALQSGNSQESVTEQDSKDSTYSLSSTLTLSKADYEKHKVYACEVTHQGLSSPVTKSFNRGEC
notes: Soluble Fab from HEK cells; all domains other than VL are the same as wild-type 10F7-M10; also called HH-HH-L
- koff [2]: 0.0037 s⁻¹
- kon [2]: 160000 M⁻¹ s⁻¹
- koff [3]: 0.00371 s⁻¹
- kon [3]: 160000 M⁻¹ s⁻¹
- EC50 [4]: 6.9 nM
- Kd [5]: 23.2 nM
- Kd [6]: 23 nM

B3: Humanized & affinity matured 10F7-M10 Fab clone L1+2-16 (Fab)
heavy: B2 heavy
light: B2 light with H30F, H31Q, L52E
notes: Soluble Fab from HEK cells; all domains other than VL are the same as wild-type 10F7-M10; also called FQ-HH-E
- koff [2]: 0.0038 s⁻¹
- kon [2]: 610000 M⁻¹ s⁻¹
- koff [3]: 0.00376 s⁻¹
- kon [3]: 608000 M⁻¹ s⁻¹
- EC50 [4]: 4.6 nM
- Kd [5]: 6.18 nM
- Kd [6]: 6.18 nM

The remaining lines, values ahead:

- binding result [1]: binds
B1: hF-3-103M1 Fab (humanized 3-103, clone M1; parental / wild-type Fab) (Fab, V domains shown)
VH: QVQLVQSGAEVKKPGASVKVSCTASGFNIKDTYMLWVRQAPGQGLEWMGRIDPANANSRYDPKFQGRVTITADTSTNTAYMELSSLRSEDTAVYYCVDGYMFAYWGQGTLVTVSS
VL: DVVMTQTPLSLSVTPGQPASISCKSSQSLLYSNGKTYLHWLLQKPGQSPQRLIYLVSKLDSGVPDRFSGSGSGTDFTLKISRVEAEDVGVYYCVQGTHFPLTFGQGTKLEIKR
notes: Soluble humanized Fab; also called parent Fab

- koff [2]: 0.0033 s⁻¹
- kon [2]: 480000 M⁻¹ s⁻¹
- koff [3]: 0.00326 s⁻¹
- kon [3]: 477000 M⁻¹ s⁻¹
- EC50 [4]: 4.6 nM
- Kd [5]: 6.83 nM
- Kd [6]: 6.83 nM
B4: Humanized & affinity matured 10F7-M10 Fab clone L1+2-19 (Fab)
heavy: B2 heavy
light: B2 light with H30Y, H31Q, L52F
notes: the tie is by these residues, not by the label; also called YQ-HH-F

Reference: US20220153859A1 (ANOKION, published 2022)
